Molecular target: T1, CD22 on Raji cells (UniProt P20273 20-847, limits assumed)
T1 construct: whole, on cells
T1 sequence (looked up): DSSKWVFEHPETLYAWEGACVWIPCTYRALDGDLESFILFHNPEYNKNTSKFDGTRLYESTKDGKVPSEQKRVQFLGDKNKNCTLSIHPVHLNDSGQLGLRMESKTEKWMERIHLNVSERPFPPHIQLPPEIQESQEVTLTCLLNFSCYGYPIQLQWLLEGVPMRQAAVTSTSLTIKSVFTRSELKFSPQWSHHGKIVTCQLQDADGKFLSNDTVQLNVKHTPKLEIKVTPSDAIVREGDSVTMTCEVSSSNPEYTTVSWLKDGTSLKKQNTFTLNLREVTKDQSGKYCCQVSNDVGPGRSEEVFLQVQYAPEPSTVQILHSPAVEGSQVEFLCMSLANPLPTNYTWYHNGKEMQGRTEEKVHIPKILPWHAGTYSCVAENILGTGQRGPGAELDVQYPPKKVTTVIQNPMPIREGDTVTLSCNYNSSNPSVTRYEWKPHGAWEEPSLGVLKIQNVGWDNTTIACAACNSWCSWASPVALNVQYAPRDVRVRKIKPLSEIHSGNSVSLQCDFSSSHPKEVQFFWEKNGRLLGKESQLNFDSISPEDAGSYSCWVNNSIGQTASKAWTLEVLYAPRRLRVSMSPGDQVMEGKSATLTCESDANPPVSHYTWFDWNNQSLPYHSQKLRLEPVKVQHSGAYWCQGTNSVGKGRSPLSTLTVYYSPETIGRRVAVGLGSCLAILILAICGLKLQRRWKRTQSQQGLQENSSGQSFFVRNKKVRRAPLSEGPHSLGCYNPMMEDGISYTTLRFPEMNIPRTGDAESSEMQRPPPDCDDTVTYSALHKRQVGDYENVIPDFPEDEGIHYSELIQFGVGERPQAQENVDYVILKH
Assay: flow cytometry on Raji cells, 1 ug antibody, FITC goat anti-human IgG1 Fc detection
Method: The mixtures were incubated for 30 minutes at 4° C. and washed three times with PBS to remove unbound antibodies. The binding levels of the antibodies to Raji cells were assessed by the addition of a 20x diluted FITC-labeled, goat anti-human IgG1, Fc fragment-specific antibodies (Jackson ImmunoResearch, West Grove, Pa.) in a final volume of 100 μl in PBS-FA, and incubating for 30 minutes at 4° C.

B1: FR-patched anti-CD22 antibody hpRFB4 (antibody, human IgG1, V domains shown)
VH: EVQLLESGGGLVQPGGSLRLSCAASGFSFSIYDMSWVRQAPGKGLEWVAYISSGGGTTYYPDTVKGRFTISRDNAKNSLYLQMNSLRVEDTALYYCARHSGYGSSYGVLFAYWGQGTLVTVSS
VL: DIQMTQSPSSLSASVGDRVTISCRASQDISNYLNWYQQKPGKAPKLLIYYTSILHSGVPSRFSGSGSGTEFTLTISSLQPEDFATYFCQQGNTLPWTFGGGTKVEIK
notes: Expressed in Sp2/0 cells with a human IgG1 heavy chain constant region and a human kappa light chain constant region (vectors hpRFB4pSMh and hpRFB4pSMk); protein A purified; also called FR-patched antibody; FR-patched RFB4
- binding result: binds

From patent US20030040606A1 (SKYTECH TECHNOLOGY, published 2003)
